Data on one molecule can be found in publication PMC12343972 (Nature Communications, 2025).

Series [1] deals with T1, Rad50-K173A K174A (Saccharomyces cerevisiae, UniProt P12753 1-1312, K173A;K174A).
T1 sequence: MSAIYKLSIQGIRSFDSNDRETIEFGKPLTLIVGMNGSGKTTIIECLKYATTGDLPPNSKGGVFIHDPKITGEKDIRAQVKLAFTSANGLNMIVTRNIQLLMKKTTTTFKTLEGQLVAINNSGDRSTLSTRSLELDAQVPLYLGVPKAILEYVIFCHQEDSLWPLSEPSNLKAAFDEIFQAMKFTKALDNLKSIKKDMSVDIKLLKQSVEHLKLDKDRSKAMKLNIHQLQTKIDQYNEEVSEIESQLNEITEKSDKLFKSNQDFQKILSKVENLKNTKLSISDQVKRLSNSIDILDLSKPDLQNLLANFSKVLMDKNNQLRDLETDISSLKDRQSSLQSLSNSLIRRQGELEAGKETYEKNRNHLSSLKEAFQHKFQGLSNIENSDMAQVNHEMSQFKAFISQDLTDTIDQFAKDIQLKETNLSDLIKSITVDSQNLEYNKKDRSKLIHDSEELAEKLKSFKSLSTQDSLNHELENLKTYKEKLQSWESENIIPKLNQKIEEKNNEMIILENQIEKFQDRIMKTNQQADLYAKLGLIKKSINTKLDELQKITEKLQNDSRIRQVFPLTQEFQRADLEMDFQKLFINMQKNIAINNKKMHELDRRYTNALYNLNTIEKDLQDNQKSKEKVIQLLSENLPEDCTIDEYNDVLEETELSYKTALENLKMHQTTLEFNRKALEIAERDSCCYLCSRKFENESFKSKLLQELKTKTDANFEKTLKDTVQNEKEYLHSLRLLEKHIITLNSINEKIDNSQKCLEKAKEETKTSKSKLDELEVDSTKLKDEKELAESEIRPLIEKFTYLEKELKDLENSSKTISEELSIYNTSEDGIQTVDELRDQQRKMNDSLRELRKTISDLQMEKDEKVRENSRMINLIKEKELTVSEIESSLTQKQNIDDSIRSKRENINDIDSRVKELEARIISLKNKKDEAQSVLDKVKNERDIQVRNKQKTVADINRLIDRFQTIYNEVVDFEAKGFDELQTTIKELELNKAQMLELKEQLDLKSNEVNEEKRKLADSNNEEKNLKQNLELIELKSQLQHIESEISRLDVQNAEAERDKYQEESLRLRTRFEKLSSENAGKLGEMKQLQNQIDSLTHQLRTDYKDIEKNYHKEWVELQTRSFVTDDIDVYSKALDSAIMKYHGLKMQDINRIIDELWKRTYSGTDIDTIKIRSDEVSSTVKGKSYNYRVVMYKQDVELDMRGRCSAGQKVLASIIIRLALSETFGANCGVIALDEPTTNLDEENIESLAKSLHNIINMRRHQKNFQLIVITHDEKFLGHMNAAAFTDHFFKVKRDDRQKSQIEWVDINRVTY
Nature of the series: EMSA.

For series [2], the target named is T2, Rad50-3KA (Saccharomyces cerevisiae, UniProt P12753 1-1312, K192A;K195A;K196A).
T2 sequence: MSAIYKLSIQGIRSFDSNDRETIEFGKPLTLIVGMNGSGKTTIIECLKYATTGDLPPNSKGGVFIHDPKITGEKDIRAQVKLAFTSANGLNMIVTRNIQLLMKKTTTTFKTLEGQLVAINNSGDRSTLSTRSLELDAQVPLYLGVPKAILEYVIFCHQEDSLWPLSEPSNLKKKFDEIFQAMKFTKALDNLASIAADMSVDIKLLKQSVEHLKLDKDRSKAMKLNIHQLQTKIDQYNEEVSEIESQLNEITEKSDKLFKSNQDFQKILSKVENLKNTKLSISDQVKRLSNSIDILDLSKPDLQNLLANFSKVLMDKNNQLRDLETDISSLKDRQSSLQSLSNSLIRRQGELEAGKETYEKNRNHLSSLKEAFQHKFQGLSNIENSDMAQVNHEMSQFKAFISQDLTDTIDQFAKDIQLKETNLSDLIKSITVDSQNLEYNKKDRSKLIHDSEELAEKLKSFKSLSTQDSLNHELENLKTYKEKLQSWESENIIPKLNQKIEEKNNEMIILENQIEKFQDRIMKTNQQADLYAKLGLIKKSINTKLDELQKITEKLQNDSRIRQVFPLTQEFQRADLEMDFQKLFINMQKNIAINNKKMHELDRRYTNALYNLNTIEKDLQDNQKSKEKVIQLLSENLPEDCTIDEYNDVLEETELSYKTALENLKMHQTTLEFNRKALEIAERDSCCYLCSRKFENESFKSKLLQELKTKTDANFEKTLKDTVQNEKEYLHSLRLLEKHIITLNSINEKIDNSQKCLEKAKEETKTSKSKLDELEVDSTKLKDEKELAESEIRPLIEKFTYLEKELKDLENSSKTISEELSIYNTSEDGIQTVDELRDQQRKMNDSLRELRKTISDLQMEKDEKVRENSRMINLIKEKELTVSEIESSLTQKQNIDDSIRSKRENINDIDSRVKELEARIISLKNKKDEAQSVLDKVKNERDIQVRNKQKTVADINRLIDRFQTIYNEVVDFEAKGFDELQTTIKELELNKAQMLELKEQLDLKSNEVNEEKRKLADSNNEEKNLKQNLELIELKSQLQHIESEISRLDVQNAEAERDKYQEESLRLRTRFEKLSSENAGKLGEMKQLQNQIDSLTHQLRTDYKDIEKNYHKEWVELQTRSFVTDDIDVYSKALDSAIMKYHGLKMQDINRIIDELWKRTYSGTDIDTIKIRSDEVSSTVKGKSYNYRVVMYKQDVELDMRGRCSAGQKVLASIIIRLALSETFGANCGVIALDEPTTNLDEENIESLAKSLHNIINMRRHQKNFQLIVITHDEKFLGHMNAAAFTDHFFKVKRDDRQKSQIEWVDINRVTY
Nature of the series: EMSA. In general terms: In EMSA bound probe runs differently from free probe, usually more slowly.

B1: 83-mer dsDNA (EMSA) (dsDNA)
DNA 1: TTGATAAGAGGTCATTTTTGCGGATGGCTTAGAGCTTAATTGCTGAATCTGGTGCTGTAGCTCAACATGTTTTAAATATGCAA
DNA 2: TTGCATATTTAAAACATGTTGAGCTACAGCACCAGATTCAGCAATTAAGCTCTAAGCCATCCGCAAAAATGACCTCTTATCAA
B1: the binding result in series [1] and in series [2] was “binds” throughout.
